Molecular target: T1, GST-Mei2 RRM1-RRM2 (Schizosaccharomyces pombe, UniProt P08965 191-373)
T1 sequence: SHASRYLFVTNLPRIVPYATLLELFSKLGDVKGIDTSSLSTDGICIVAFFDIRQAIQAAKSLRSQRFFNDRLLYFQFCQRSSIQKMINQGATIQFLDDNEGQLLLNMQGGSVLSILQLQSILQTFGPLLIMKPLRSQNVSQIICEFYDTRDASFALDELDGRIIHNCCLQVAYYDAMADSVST
Test: EMSA

B1: meiRNA 20mer (ssRNA)
RNA: GUCAAUCUUCUGCCGUCUUG
binding result: no binding

From publication PMC9486875
